Residue numbers refer to the chain shown, from its start.
B1: Tb017 scFv (scFv, V domains shown)
VH: QVQLVQSGAEVKKPGSSVKVSCKASGGTFSSYAISWVRQAPGQGLEWMGGIIPIFGTANYAQKFQGRVTITADESTSTAYMELSSLRSEDTAVYYCARGWWYDLVFDYWGQGTLVTVSS
VL: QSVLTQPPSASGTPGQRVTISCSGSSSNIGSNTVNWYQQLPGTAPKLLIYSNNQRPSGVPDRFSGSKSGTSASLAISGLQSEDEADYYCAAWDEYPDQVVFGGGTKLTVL
notes: The name Tb017 is printed for the IgG1 and its conjugate; source: phage produced from E. coli, phage-containing supernatant
B2: Tb074 scFv (scFv, V domains shown)
VH: B1 VH with Y102H, D103E, L104P, V105G
VL: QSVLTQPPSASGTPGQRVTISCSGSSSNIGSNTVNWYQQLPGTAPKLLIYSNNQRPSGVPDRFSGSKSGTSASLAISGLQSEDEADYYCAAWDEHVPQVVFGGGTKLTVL
notes: The name Tb074 is printed for the IgG1 and its conjugates; source: phage produced from E. coli, phage-containing supernatant
B3: Tb073 scFv (scFv, V domains shown)
VH: B1 VH with W101Y, Y102D, D103M, L104G, V105D, Y108M
VL: QSVLTQPPSASGTPGQRVTISCSGSSSNIGSNTVNWYQQLPGTAPKLLIYSNNQRPSGVPDRFSGSKSGTSASLAISGLQSEDEADYYCAAWDWHHGHVVVFGGGTKLTVL
notes: The name Tb073 is printed for the IgG1 and its conjugate; source: phage produced from E. coli, phage-containing supernatant
B4: Tb078 scFv (scFv, V domains shown)
VH: B1 VH with W101I, D103E, L104F, V105I, F106I, Y108A
VL: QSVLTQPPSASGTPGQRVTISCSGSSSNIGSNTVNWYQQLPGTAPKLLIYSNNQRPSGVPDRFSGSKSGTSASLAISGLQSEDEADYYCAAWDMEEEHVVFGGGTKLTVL
notes: The name Tb078 is printed for the IgG1 and its conjugate; source: phage produced from E. coli, phage-containing supernatant
B5: Tb085 scFv (scFv, V domains shown)
VH: B1 VH with G99E, W100G, Y102D, D103Y, L104G, V105W, Y108F
VL: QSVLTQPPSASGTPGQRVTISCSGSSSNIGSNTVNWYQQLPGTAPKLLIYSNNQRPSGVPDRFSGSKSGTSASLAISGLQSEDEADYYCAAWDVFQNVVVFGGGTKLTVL
notes: The name Tb085 is printed for the IgG1 and its conjugates; source: phage produced from E. coli, phage-containing supernatant
B6: Tb086 scFv (scFv, V domains shown)
VH: B1 VH with W101Y, D103H, L104G, V105G, F106I
VL: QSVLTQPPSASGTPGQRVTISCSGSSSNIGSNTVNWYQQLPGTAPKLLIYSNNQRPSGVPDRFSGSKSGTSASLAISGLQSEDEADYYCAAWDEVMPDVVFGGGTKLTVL
notes: The name Tb086 is printed for the IgG1; source: phage produced from E. coli, phage-containing supernatant

These binders were tested against T1, Recombinant HpHbR N-terminal domain (Trypanosoma brucei brucei (strain not …, biotin (biotinylated form on streptavidin-coated plates; a non-biotinylated form was coated on Maxisorp plates)) (assay: ELISA; phage ELISA: 10 ug/ml HpHbR NTD coated on Nunc Maxisorp plates or 5 ug/mL biotinylated NTD on streptavidin-coated plates overnight at 4°C; blocked phage supernatants 1 hr at room temperature; bound phage detected with anti-M13 HRP antibody; BSA and streptavidin in parallel). Details: one partner purified.
T1 construct: also called HpHbR NTD; TbHpHbR NTD; source: recombinant, expressed as previously described (34)
B1: binds.
B2: binds.
B3: binds.
B4: binds.
B5: binds.
B6: binds.

Reference: article doi:10.1101/547208, “A single dose of antibody-1 drug conjugate cures a stage model of African trypanosomiasis” (bioRxiv, 2019)
